# Reference: publication PMC3572128
# B1: full-length Bid (C15S, C28S), fluorescently labelled (natural protein)
# chain: MDCEVNNGSSLRDESITNLLVFGFLQSSSDNSFRRELDALGHELPVLAPQWEGYDELQTDGNRSSHSRLGRIEADSESQEDIIRNIARHLAQVGDSMDRSIPPGLVNGLALQLRNTSRSEEDRNRDLATALEQLLQAYPRDMEKEKTMLVLALLLAKKVASHTPSLLRDVFHTTVNFINQNLRTYVRSLARNGMD
# modifications: Bodipy488 or Alexa647 maleimide labelling (legends and results also say Alexa488)
# Target: caspase-8 (P10 and P18 subunits reconstituted in their active form)
# Test: flow cytometry of giant unilamellar vesicles; CL-containing GUVs in PBS; caspase-8 290 nM bound to the vesicles, fluorescent Bid added at 10 to 100 nM; vesicle fluorescence recorded online
binder,measurement,value
B1,mean fluorescence of GUVs + caspase-8 + Bid (0 min),84 a.u.
